Experimental data published in the RNAGym collection of RNA variant scans (doi:10.7554/elife.80360).

B1: HDV Ribozyme (parent)
chain: GGCCGGCAUGGUCCCAGCCUCCUCGCUGGCGCCGGCUGGGCAACAUUCCGAGGGGACCGUCCCCUCGGUAAUGGCGAAUGGGACCCA

Variants of: B1
Assay: self-cleavage, relative activity (ratio to wild type); higher = more cleavage; co-transcriptional

| Variant | self-cleavage |
| --- | --- |
| G25A C61G | 0.185 |
| G25A C61U | 0.225 |
| C24U U37G | 0.138 |
| C24U U72C | 0.104 |
| C24G G39U | 0.0314 |
| C24A C36A | 0.175 |
| C24G C62U | 0.142 |
| C24G C62G | 0.0415 |
| G25A A87C | 0.183 |
| C24A C44G | 0.256 |
| C24A C44U | 0.0831 |
| C24A U46A | 0.213 |
| C24U U46G | 0.415 |
| C24U U46C | 0.268 |
| C24U U46A | 0.53 |
| C24G C41A | 0.113 |
| G25A C62A | 0.168 |
| C24A G35U | 0.298 |
| C24G A78C | 0.0241 |
| G25A C64A | 0.115 |
| C24U C66G | 0.796 |
| C24U C66U | 0.629 |
| C24G A56U | 0.0831 |
| C24U C44A | 0.277 |

| Variant | self-cleavage |
| --- | --- |
| C24G C61U | 0.166 |
| C24U A56G | 0.77 |
| C24A G82U | 0.328 |
| C24A G82C | 0.249 |
| C24G G67A | 0.119 |
| C24G G67C | 0.026 |
| C24U G34A | 0.0292 |
| C24U G34C | 0.135 |
| C24G G25U | 0.0773 |
| C24G G68C | 0.126 |
| C24G G68U | 0.0191 |
| C24G G76C | 0.219 |
| C24G A51G | 0.111 |
| C24G A51U | 0.237 |
| C24G G59A | 0.0955 |
| C24G G59C | 0.0923 |
| C24G G59U | 0.147 |
| C24G A87C | 0.128 |
| C24G A87U | 0.0902 |
| C24G A87G | 0.137 |
| C24U C49G | 0.536 |
| C24U C49A | 0.739 |
| C24A C66G | 0.731 |
| C24A C66U | 0.69 |

| Variant | self-cleavage |
| --- | --- |
| C24U C63U | 0.726 |
| C24U C63G | 0.76 |
| C24G C48A | 0.0519 |
| C24G C48U | 0.14 |
| C24U U69C | 0.831 |
| C24U U69A | 0.617 |
| C24U U69G | 0.764 |
| C24A G76A | 0.769 |
| C24A G76U | 0.842 |
| C24A G76C | 0.936 |
| C24A C49A | 0.65 |
| C24A U37C | 0.974 |
| C24A U37G | 0.142 |
| C24A U37A | 0.145 |
| G25A C36U | 0.153 |
| C24U G76A | 0.59 |
| C24U G76C | 0.997 |
| C24G C30U | 0.0712 |
| C24G C30A | 0.0898 |
| G25A A51U | 0.318 |
| G25A A51C | 0.213 |
| C24U C33U | 0.354 |
| C24A C64U | 0.866 |
| C24A C64G | 0.749 |

| Variant | self-cleavage |
| --- | --- |
| C24A G25A | 0.102 |
| C24A U69A | 0.635 |
| C24G G74U | 0.0554 |
| C24G C58A | 0.121 |
| C24G C58G | 0.108 |
| C24G C58U | 0.117 |
| C24A C84A | 0.787 |
| C24U G28U | 0.119 |
| C24U C36A | 0.0256 |
| C24A U72C | 0.253 |
| C24A U72G | 0.364 |
| C24A C61U | 0.757 |
| C24A C61G | 0.678 |
| C24G C66G | 0.13 |
| C24G C66U | 0.166 |
| C24U A71G | 0.648 |
| C24U A71U | 0.587 |
| C24G C64G | 0.131 |
| C24G C64U | 0.0886 |
| G25A C48A | 0.491 |
| G25A C48G | 0.122 |
| C24A U27G | 0.415 |
| C24U U79G | 0.244 |
| C24A G54U | 0.736 |

| Variant | self-cleavage |
| --- | --- |
| C24A C32G | 0.213 |
| C24A C32U | 0.619 |
| C24G C26U | 0.514 |
| C24G C26G | 0.277 |
| C24G U46G | 0 |
| C24G U46C | 0.106 |
| C24G U46A | 0.0326 |
| G25A G31A | 0.0773 |
| G25A G31U | 0.0536 |
| C24G U65A | 0.208 |
| C24G U65G | 0.233 |
| C24U G40C | 0.138 |
| C24A C86A | 0.607 |
| C24A C86G | 0.724 |
| C24G G52U | 0.0852 |
| G25A C58U | 0.248 |
| G25A A71C | 0.185 |
| G25A A71U | 0.0369 |
| C24G G73A | 0.151 |
| C24G G73U | 0.0841 |
| C24A G50A | 0.688 |
| C24A G50U | 0.641 |
| C24U G80A | 0.0525 |
| C24U G80U | 0.102 |

| Variant | self-cleavage |
| --- | --- |
| C24U G54C | 0.748 |
| C24U G54A | 0.779 |
| C24U G54U | 0.618 |
| C24G G34C | 0.0437 |
| C24G G34U | 0.0268 |
| C24G G34A | 0.0332 |
| G25A C26U | 0.339 |
| G25A C26G | 1.11 |
| G25A C26A | 0.0852 |
| C24G A43C | 0.0811 |
| C24G A43U | 0.0237 |
| C24G A43G | 0.0354 |
| C24U C61A | 0.591 |
| C24U C61U | 0.718 |
| C24A U65G | 0.511 |
| C24A U65A | 0.735 |
| C24U A51G | 0.415 |
| C24U G67A | 0.554 |
| C24U G67U | 0.372 |
| C24A C57A | 0.842 |
| C24G U72A | 0.0437 |
| C24G U72G | 0 |
| C24G U72C | 0.111 |
| C24G U47A | 0.106 |

| Variant | self-cleavage |
| --- | --- |
| C24G U47G | 0.0978 |
| C24A G40C | 0.117 |
| C24A G40A | 0.809 |
| C24U C75G | 0.119 |
| G25A C84U | 0.173 |
| G25A A42G | 0.158 |
| C24G U79A | 0.0898 |
| C24G U60G | 0.0755 |
| C24G A77G | 0.298 |
| C24G A77C | 0.0386 |
| C24G A77U | 0.111 |
| G25A A45G | 0.332 |
| C24A U79C | 0.12 |
| C24A U79G | 0.312 |
| C24U C30G | 0.122 |
| C24U C30U | 0.142 |
| C24U C30A | 0.0482 |
| C24G C49A | 0.0804 |
| C24G C49G | 0.0314 |
| C24A G68C | 0.628 |
| C24G A45G | 0.222 |
| C24G A45C | 0.0302 |
| C24A C48G | 0.47 |
